Measurements taken from patent CN111518208A (QICHEN BAITAI BEIJING MEDICAL TECH CO LTD, dated 2020).

Tests used:
细胞膜表面表达的人CD47蛋白 = 细胞膜表面表达的人CD47蛋白 (human, UniProt Q08722 19-323); test: cell-based or functional assay
[1] = molecular target: T1, 人CD47蛋白胞外区融合蛋白(hCD47-ECD-6His) (human, UniProt Q08722 19-139, limits assumed); test: ELISA, hCD47-ECD-6His coated, goat anti-mouse IgG-HRP
T1 construct: extracellular domain; Made in FreeStyle 293F cells, purified on a nickel column; not shown: linker peptide-6His (连接肽-6His)
T1 sequence (Q08722 19-139 limits assumed): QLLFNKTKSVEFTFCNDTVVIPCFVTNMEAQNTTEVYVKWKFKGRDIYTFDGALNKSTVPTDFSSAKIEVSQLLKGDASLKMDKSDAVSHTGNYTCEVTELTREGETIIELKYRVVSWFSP

Sequence of 细胞膜表面表达的人CD47蛋白 (Q08722 19-323): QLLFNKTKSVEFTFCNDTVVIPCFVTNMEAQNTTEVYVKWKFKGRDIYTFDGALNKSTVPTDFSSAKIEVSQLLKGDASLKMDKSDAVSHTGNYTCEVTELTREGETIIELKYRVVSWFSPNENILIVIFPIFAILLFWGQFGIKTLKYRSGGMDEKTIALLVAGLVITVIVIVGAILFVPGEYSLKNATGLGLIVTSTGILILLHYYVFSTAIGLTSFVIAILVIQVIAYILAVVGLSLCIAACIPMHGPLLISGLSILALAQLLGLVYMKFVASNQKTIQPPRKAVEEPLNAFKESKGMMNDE

Binder	促吞噬曲线的EC50值 (ATP法, C57BL小鼠腹腔原代巨噬细胞对Raji细胞的吞噬) (细胞膜表面表达的人CD47蛋白)	EC50 [1]
抗人CD47单克隆抗体A1 (antibody, V domains shown) VH: EFQLQQSGPELVKPGASVKMSCKASGYTFTNYVLHWVKQKPGQGLEWIGYFNPYNDDSKYNEKFKGKATLTSDKSSSTAYMELSSLTSEDSAVYYCARGGYYSMDYWGQGTTVTVSS VL: DVMTQTPLSLPVSLGDQASISCRASQSLAHSNGYTYLQWYLQKPGQSPKLLIYKVSKRFSGVPDRFSGSGSGTDFTLKISRVEAEDLGVYFCSQSTHVPYTFGQGTKVEIK	0.00439 微克/毫升	0.016 µg/mL
抗人CD47单克隆抗体A2 (antibody, V domains shown) VH: EVQVQQSGPELVKPGASVKISCKASGYSFTGYFMNWVKQSHGKSLEWIGRINPYNGDTFYNQKFKGKATLTVDKSSSTAHMELLSLTSEDSAVYYCGRGGYGGMDYWGQGTSVTVSS VL: DVLMTQTPLSLPVSLGDQASISCRSSQSIVHSNGNTYLEWYLQKPGQSPKLLIYKVSNRFSGVPDRFSGSGSGTDFTLKISRVEAEDLGVYYCFQGSHVPYTFGGGTKLEIK	0.00462 微克/毫升	0.007 µg/mL
抗人CD47单克隆抗体A3 (antibody, V domains shown) VH: QVQLQQPGAELVRPGASVKLSCKASGHTFTNYWMNWIKQRPEQGLEWIGNIDPYDSETHYNQKFKDKAILTVGKSSSTAYMQLSSLTSEDSAVYYCAIWRGYALDYWGQGTSVTVSS VL: CDVQITQSPSYLAASPGETITINCRASKSISKFLAWYQEKPGKTNNLLIYSGSTLQSGIPSRFSGSGSGTDFTLTISSLEPEDFAMYYCQQHNEYPWTFGGGTKLEIK	0.00391 微克/毫升	0.01 µg/mL
抗人CD47单克隆抗体A5 (antibody, V domains shown) VH: EVQLQQSGPELVKPGASMRMSCKASGYSFTGYTMHWVKQSHGTNLEWIGLINPYTGGTNYNQKFKGKATLTLDKSSSTAYMELLSLTSEDFAVYYCARMGLAWFAYWGQGTLVTVSA VL: DVVMTQTPLSLPVSLGDQASISCRSSQSLVHSNGNTYFHWYLQKPGQSPKLLIYKVSNRFSGVPDRFSGSGSGTDFTLKISRVEAEDLGVYFCSQSTHVPYTFGGGTKLEMK	0.00665 微克/毫升	0.016 µg/mL
抗人CD47单克隆抗体A6 (antibody, V domains shown) VH: QVQLQQSGAELVRPGASVTLSCKASGYSFTDSEMHWVKQTPVYGLEWTGVIDPETGNSAYNQKFKGKATLTADKSSNTAYMELRSLTSEDSAVYYCTRGGVFGYPFDYWGQGTTLTVSS VL: ENVLTQSPAIMAASLGQKVTMTCSATSSVRSSYLHWYQQKSGASPKPLIHRTSNLASGVPARFSGSGSGTSYSLTISSVEAEDDATYYCQQWRGYPYTFGGGTKLEIK	0.00568 微克/毫升	0.01 µg/mL
